The source of these data is patent publication US20170210777A1.

In the assay the target is human IgG antibody (human). Briefly: SPR (Biacore), ligand immobilised on CM5. (Surface plasmon resonance follows binding to a sensor surface in real time, without labels.)

In general, koff refers to the first-order rate constant of dissociation. Lower therefore signals a long-lived complex. “modified protein A (manufactured by Sino Biological Inc.)” had a koff of 0.00032 s⁻¹.
